# Columns and labels:
# Conditions in all cases: protein: recombinant; hairpin, 8 bp stem, 9 nt loop
# FUS-RRM [1] = biological target: T1, FUS-RRM (Homo sapiens, UniProt P35637 282-374); test: ITC; sequential site N2; ITC: 10 mM HEPES pH 7.0, 20 mM Na2SO4 (+5 mM beta-mercaptoethanol for RRM-RanBP2 constructs), 298 K, 1 mM RNA into 100 uM protein. NMR: 20 mM Na phosphate pH 6.2, 25 mM NaCl, 5% D2O (RRM) or 25 mM Na2SO4, 5 mM beta-mercaptoethanol (TAF15-RRM-RanBP2), 298 K
# TAF15-RRM = TAF15-RRM (Homo sapiens, UniProt Q92804 231-323); test: ITC; N = 0.72; ITC: 10 mM HEPES pH 7.0, 20 mM Na2SO4 (+5 mM beta-mercaptoethanol for RRM-RanBP2 constructs), 298 K, 1 mM RNA into 100 uM protein. NMR: 20 mM Na phosphate pH 6.2, 25 mM NaCl, 5% D2O (RRM) or 25 mM Na2SO4, 5 mM beta-mercaptoethanol (TAF15-RRM-RanBP2), 298 K
# FUS-RRM [2] = biological target: T1, FUS-RRM; test: ITC; average over three sequential sites; ITC: 10 mM HEPES pH 7.0, 20 mM Na2SO4 (+5 mM beta-mercaptoethanol for RRM-RanBP2 constructs), 298 K, 1 mM RNA into 100 uM protein. NMR: 20 mM Na phosphate pH 6.2, 25 mM NaCl, 5% D2O (RRM) or 25 mM Na2SO4, 5 mM beta-mercaptoethanol (TAF15-RRM-RanBP2), 298 K
# FUS-RRM [3] = biological target: T1, FUS-RRM; test: ITC; sequential site N1; ITC: 10 mM HEPES pH 7.0, 20 mM Na2SO4 (+5 mM beta-mercaptoethanol for RRM-RanBP2 constructs), 298 K, 1 mM RNA into 100 uM protein. NMR: 20 mM Na phosphate pH 6.2, 25 mM NaCl, 5% D2O (RRM) or 25 mM Na2SO4, 5 mM beta-mercaptoethanol (TAF15-RRM-RanBP2), 298 K
# FUS-RRM-RanBP2 = FUS-RRM-RanBP2 (Homo sapiens, UniProt P35637 282-454); test: ITC; N = 0.7; 5 mM beta-mercaptoethanol; ITC: 10 mM HEPES pH 7.0, 20 mM Na2SO4 (+5 mM beta-mercaptoethanol for RRM-RanBP2 constructs), 298 K, 1 mM RNA into 100 uM protein. NMR: 20 mM Na phosphate pH 6.2, 25 mM NaCl, 5% D2O (RRM) or 25 mM Na2SO4, 5 mM beta-mercaptoethanol (TAF15-RRM-RanBP2), 298 K
# FUS-RRM [4] = biological target: T1, FUS-RRM; test: ITC; sequential site N3; ITC: 10 mM HEPES pH 7.0, 20 mM Na2SO4 (+5 mM beta-mercaptoethanol for RRM-RanBP2 constructs), 298 K, 1 mM RNA into 100 uM protein. NMR: 20 mM Na phosphate pH 6.2, 25 mM NaCl, 5% D2O (RRM) or 25 mM Na2SO4, 5 mM beta-mercaptoethanol (TAF15-RRM-RanBP2), 298 K
# TAF15-RRM-RanBP2 = TAF15-RRM-RanBP2 (Homo sapiens, UniProt Q92804 231-388); test: ITC; N = 0.8; 5 mM beta-mercaptoethanol; ITC: 10 mM HEPES pH 7.0, 20 mM Na2SO4 (+5 mM beta-mercaptoethanol for RRM-RanBP2 constructs), 298 K, 1 mM RNA into 100 uM protein. NMR: 20 mM Na phosphate pH 6.2, 25 mM NaCl, 5% D2O (RRM) or 25 mM Na2SO4, 5 mM beta-mercaptoethanol (TAF15-RRM-RanBP2), 298 K
# TAF15-RRM-RanBP2, sequence (Q92804 231-388): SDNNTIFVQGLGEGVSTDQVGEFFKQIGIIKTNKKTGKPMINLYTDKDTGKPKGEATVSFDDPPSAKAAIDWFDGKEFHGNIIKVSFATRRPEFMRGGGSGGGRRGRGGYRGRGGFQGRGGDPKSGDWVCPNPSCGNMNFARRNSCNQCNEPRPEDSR
# T1 sequence (P35637 282-374): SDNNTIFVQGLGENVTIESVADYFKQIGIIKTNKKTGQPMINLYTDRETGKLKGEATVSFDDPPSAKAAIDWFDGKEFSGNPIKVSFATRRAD
# FUS-RRM-RanBP2, sequence (P35637 282-454): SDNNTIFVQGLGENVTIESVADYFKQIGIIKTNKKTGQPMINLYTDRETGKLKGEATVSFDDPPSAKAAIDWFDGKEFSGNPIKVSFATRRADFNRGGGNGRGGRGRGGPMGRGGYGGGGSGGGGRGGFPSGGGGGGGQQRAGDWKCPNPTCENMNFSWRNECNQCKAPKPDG
# TAF15-RRM, sequence (Q92804 231-323): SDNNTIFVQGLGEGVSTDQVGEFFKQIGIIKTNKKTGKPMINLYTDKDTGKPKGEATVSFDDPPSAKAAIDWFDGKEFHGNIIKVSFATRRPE
binder,measurement,setting,value
CGUAUCUUUAACUACUCAAGAUACG (structured_RNA) [SON stem-loop RNA],Kd,FUS-RRM [1],13 ± 1.6 µM
same,Kd,TAF15-RRM,10 ± 1 µM
same,Kd,FUS-RRM [2],11 µM
same,Kd,FUS-RRM [3],10 ± 1 µM
same,Kd,FUS-RRM-RanBP2,8 ± 0.7 µM
same,Kd,FUS-RRM [4],12 ± 0.3 µM
same,Kd,TAF15-RRM-RanBP2,6 ± 0.7 µM

# — paper PMC4661536, “Structural delineation of stem-loop RNA binding by human TAF15 protein”
